Like-named read-outs stand apart in the source and are kept apart here.
Columns and labels:
Experiment in all cases: MST
[1] = target: EphA2 intracellular region (ICR), wildtype, phosphorylated (human) (UniProt P29317)
[2] = target: EphA2 intracellular region (ICR), kinase-dead (D739N) (human) (UniProt P29317)
[3] = target: EphA2 ICRΔSAM, wildtype, phosphorylated (human)
[4] = target: EphA2 ICRΔSAM, kinase-dead (D739N) (human)
[5] = target: EphA2 ICRΔSAM, wildtype, phosphorylated (human); remark: listed apart in the source
Target sequence in this assay (P29317 899-973, stated change not applied): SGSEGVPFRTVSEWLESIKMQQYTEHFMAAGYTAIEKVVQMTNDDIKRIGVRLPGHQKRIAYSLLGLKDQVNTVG

With “EphA2 intracellular region (ICR), wildtype, phosphorylated (from UniProt P29317 559-976) (domain or fragment)” as the molecule, how does the Kd [1] read?
The Kd was 15 µM.

“EphA2 intracellular region (ICR), kinase-dead (D739N) (from UniProt P29317 559-976) (domain or fragment)” was tested. Which Kd [2] did it give?
The Kd was 1.3 µM.

Which Kd [3] does the source give for “EphA2 ICRΔSAM, wildtype, phosphorylated (domain or fragment)” here?
Its Kd is 5.4 µM.

With “EphA2 ICRΔSAM, kinase-dead (D739N) (domain or fragment)” as the molecule, how does the Kd [4] read?
Its Kd is 1 µM.

B1: SHIP2 SAM domain (isolated) (domain or fragment)
chain: GMSAWLRAIGLERYEEGLVHNGWDDLEFLSDITEEDLEEAGVQDPAHKRLLLDTLQLSK
For B1, which Kd [5] is on record?
Its Kd is 7.5 µM.

Source: publication doi:10.1101/2025.09.29.679228
